Experimental data from PMC11375168 (Nature Communications, 2024).

Target: the molecule itself
Test: cryo-EM structure

B1: Mycobacterium tuberculosis EfpA (MtEfpA), full length, with C-terminal GFP and Strep-Tag II (natural protein)
chain: MTALNDTERAVRNWTAGRPHRPAPMRPPRSEETASERPSRYYPTWLPSRSFIAAVIAIGGMQLLATMDSTVAIVALPKIQNELSLSDAGRSWVITAYVLTFGGLMLLGGRLGDTIGRKRTFIVGVALFTISSVLCAVAWDEATLVIARLSQGVGSAIASPTGLALVATTFPKGPARNAATAVFAAMTAIGSVMGLVVGGALTEVSWRWAFLVNVPIGLVMIYLARTALRETNKERMKLDATGAILATLACTAAVFAFSIGPEKGWMSGITIGSGLVALAAAVAFVIVERTAENPVVPFHLFRDRNRLVTFSAILLAGGVMFSLTVCIGLYVQDILGYSALRAGVGFIPFVIAMGIGLGVSSQLVSRFSPRVLTIGGGYLLFGAMLYGSFFMHRGVPYFPNLVMPIVVGGIGIGMAVVPLTLSAIAGVGFDQIGPVSAIALMLQSLGGPLVLAVIQAVITSRTLYLGGTTGPVKFMNDVQLAALDHAYTYGLLWVAGAAIIVGGMALFIGYTPQQVAHAQEVKEAIDAGEL
Question: For B1, which “stoichiometry N” value is on record?
Answer: 2
